Laboratory results as given in patent US20230265185A1 (NATIONAL RESEARCH COUNCIL OF CANADA, published 2023).

T1: hCD22 fragment Bin 3, IVR3 (aa211-317), displayed on yeast cells (human, UniProt P20273 230-336)
T1 construct: Range is counted on the mature ECD, not on the UniProt entry; on P20273 it would be 230-336 (my arithmetic); not shown: Aga2-HA display fusion partner of vector pPNL6; MYC tag
T1 sequence (looked up): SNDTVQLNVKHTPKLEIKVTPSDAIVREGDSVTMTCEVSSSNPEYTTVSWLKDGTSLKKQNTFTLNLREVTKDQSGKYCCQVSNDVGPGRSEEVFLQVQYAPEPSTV

T2: hCD22 fragment Bin 2, IVR2 (aa111-230), displayed on yeast cells (human, UniProt P20273 130-249)
T2 construct: range 111-230; Range is counted on the mature ECD, not on the UniProt entry; on P20273 it would be 130-249 (my arithmetic); not shown: Aga2-HA display fusion partner of vector pPNL6; MYC tag
T2 sequence (looked up): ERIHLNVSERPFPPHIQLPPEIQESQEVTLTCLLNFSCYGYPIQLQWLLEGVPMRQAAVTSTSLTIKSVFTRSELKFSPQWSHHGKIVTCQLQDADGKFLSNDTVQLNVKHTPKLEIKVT

T3: hCD22 fragment Bin 1, IVR1 (aa1-135), displayed on yeast cells (human, UniProt P20273 20-154)
T3 construct: range 1-135; Range is counted on the mature ECD, not on the UniProt entry; on P20273 it would be 20-154 (my arithmetic); also called CD22 Sub-Domain 1; not shown: Aga2-HA display fusion partner of vector pPNL6; MYC tag
T3 sequence (looked up): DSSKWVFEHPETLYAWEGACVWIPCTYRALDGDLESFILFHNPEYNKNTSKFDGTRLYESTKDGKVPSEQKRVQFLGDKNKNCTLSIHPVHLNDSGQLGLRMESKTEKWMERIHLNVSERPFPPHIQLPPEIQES

T4: hCD22 fragment Bin 4, IVR4 (aa303-405), displayed on yeast cells (human, UniProt P20273 322-424)
T4 construct: Range is counted on the mature ECD, not on the UniProt entry; on P20273 it would be 322-424 (my arithmetic); also called CD22 Sub-Domain 4; not shown: Aga2-HA display fusion partner of vector pPNL6; MYC tag
T4 sequence (looked up): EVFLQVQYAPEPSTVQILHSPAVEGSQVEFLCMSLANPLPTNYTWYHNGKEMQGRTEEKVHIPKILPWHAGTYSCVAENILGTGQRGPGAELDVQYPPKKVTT

T5: hCD22 fragment Bin 5, IVR5 (aa391-490), displayed on yeast cells (human, UniProt P20273 410-509)
T5 construct: range 391-490; Range is counted on the mature ECD, not on the UniProt entry; on P20273 it would be 410-509 (my arithmetic); not shown: Aga2-HA display fusion partner of vector pPNL6; MYC tag
T5 sequence (looked up): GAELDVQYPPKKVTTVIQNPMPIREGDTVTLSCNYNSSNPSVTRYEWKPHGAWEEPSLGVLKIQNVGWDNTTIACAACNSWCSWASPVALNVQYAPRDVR

T6: full-length hCD22-ECD (668aa) displayed on yeast cells (human, UniProt P20273 20-687)
T6 construct: extracellular domain; Yeast surface display fusion Aga2-HA-(insert)-MYC; also called Bin 8; CD22-ECD Full lenght; not shown: Aga2-HA display fusion partner of vector pPNL6; MYC tag
T6 sequence (looked up): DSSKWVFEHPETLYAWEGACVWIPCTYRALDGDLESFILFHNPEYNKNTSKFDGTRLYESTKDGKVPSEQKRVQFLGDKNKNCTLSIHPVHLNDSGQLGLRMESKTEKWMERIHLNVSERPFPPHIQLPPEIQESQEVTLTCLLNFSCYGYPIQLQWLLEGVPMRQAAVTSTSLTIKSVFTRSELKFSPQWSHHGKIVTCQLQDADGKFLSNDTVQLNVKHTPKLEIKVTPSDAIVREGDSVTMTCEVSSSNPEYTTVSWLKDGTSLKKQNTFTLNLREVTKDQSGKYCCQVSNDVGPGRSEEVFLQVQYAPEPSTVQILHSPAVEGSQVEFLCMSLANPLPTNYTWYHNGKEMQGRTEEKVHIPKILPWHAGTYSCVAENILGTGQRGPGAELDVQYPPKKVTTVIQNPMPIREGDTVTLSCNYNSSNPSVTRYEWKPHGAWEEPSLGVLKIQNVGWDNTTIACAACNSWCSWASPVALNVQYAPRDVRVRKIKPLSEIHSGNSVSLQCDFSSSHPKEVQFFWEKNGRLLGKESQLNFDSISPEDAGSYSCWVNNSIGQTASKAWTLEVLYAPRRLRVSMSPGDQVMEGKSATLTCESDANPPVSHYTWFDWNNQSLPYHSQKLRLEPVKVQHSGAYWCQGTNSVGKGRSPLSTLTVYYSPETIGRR


Columns and labels:
[1] = molecular target: T1, hCD22 fragment Bin 3, IVR3 (aa211-317), …; experiment: yeast display cell ELISA
Experimental: (§1) The YSD vector (pPNL6) was from The Pacific Northwest National Laboratory, USA. […] The HRP activity was assayed with substrate TMB (tetramethyl benzidine) according to the manufacture’s conditions and read at OD₄₅₀.
(§2) The wells that gave rise to OD₄₅₀ above 0.25 were highlighted, indicating significant antibody-antigen interactions. All the sdAbs tested except hCd22_1ug-14 were assigned to specific Bin(s).

[2] = molecular target: T2, hCD22 fragment Bin 2, IVR2 (aa111-230), …; experiment: yeast display cell ELISA
Experimental: as §1, §2

[3] = molecular target: T3, hCD22 fragment Bin 1, IVR1 (aa1-135), …; experiment: yeast display cell ELISA
Experimental: as §1, §2

[4] = molecular target: T4, hCD22 fragment Bin 4, IVR4 (aa303-405), …; experiment: yeast display cell ELISA
Experimental: as §1, §2

[5] = molecular target: T5, hCD22 fragment Bin 5, IVR5 (aa391-490), …; experiment: yeast display cell ELISA
Experimental: as §1, §2

[6] = molecular target: T6, full-length hCD22-ECD (668aa) displayed …; experiment: yeast display cell ELISA, biotinylated sdAb 250 nM
Experimental: as §1, §2

| Binder | OD450 [6] | binding result [1] | binding result [2] | binding result [3] | binding result [4] | binding result [5] |
| --- | --- | --- | --- | --- | --- | --- |
| hCD221ug-10 (VHH, single biotin at the VHH C-terminal (biotinylation signal sequence), llama VHH, expressed in E. coli TG1, IMAC purified, monomeric SEC fraction; also called VHH # 23; 5-hCD22 1ug-10) VHH: QVQLVESGGGLVQAGGSLSVSCTASESTFSIMMGWFRQAPGKQREMVAVINSAGSTNYADSAEGRFTISRDLAKKTVSLQMNSLKPEDTAVYYCYVDGYFGQGTQVTVSS | 0.332 OD450 | no binding (tested: OD450 not above 0.25; sdAb 250 nM) | no binding (tested: OD450 not above 0.25; sdAb 250 nM) | no binding (tested: OD450 not above 0.25; sdAb 250 nM) | no binding (tested: OD450 not above 0.25; sdAb 250 nM) | no binding (tested: OD450 not above 0.25; sdAb 250 nM) |
| hCD22pas-64 (VHH, single biotin at the VHH C-terminal (biotinylation signal sequence), llama VHH, expressed in E. coli TG1, IMAC purified, monomeric SEC fraction; also called VHH # 25; 7-hCD22 pas-64) VHH: QVQLVESGGGLVQAGGSLRLSCAASGSTFSLNTMAWYRQAPGNQREYVAAASSDGYTNYADSVRGRFTISRDNDKNTMYLQMNSLRPEDTAVYYCTWGTGRFADYIYWGQGTQVTVSS |  | no binding (tested: OD450 not above 0.25; sdAb 250 nM) | no binding (tested: OD450 not above 0.25; sdAb 250 nM) | no binding (tested: OD450 not above 0.25; sdAb 250 nM) | no binding (tested: OD450 not above 0.25; sdAb 250 nM) | no binding (tested: OD450 not above 0.25; sdAb 250 nM) |
| hCD221ug-61 (VHH, single biotin at the VHH C-terminal (biotinylation signal sequence), llama VHH, expressed in E. coli TG1, IMAC purified, monomeric SEC fraction; also called VHH # 14; 3-hCD22 1ug-61) VHH: QVQLVESGGGLVQAGGSLRLSCAASMSSFSQYVMYWYRQAPGKQRELVATITSYSNTNYADSVKGRFTISRDNAKSIAYLQMDSLKPEDTAVYYCNAQYGSTFIRNHWDDWGQGTQVTVSS | 1.48 OD450 | no binding (tested: OD450 not above 0.25; sdAb 250 nM) | no binding (tested: OD450 not above 0.25; sdAb 250 nM) | no binding (tested: OD450 not above 0.25; sdAb 250 nM) | no binding (tested: OD450 not above 0.25; sdAb 250 nM) | no binding (tested: OD450 not above 0.25; sdAb 250 nM) |

Continued, in another order:

| OD450 [6] | Binder | binding result [1] | binding result [2] | binding result [3] | binding result [4] | binding result [5] |
| --- | --- | --- | --- | --- | --- | --- |
| 1.42 OD450 | hCD221ug-36 (VHH, single biotin at the VHH C-terminal (biotinylation signal sequence), llama VHH, expressed in E. coli TG1, IMAC purified, monomeric SEC fraction; also called VHH # 22; 4-hCD22 1ug-36) VHH: EVQLVDSGGGLVQAGGSLRVSCEASGITFSRAAMGWYRQRPGKERERVAVVNSDSSTIYADSVKGRFTISRDNAKNTVYLQMNSLEPEDTAVYYCWSPGFGSYWGQGTQVTVSS | no binding (tested: OD450 not above 0.25; sdAb 250 nM) | no binding (tested: OD450 not above 0.25; sdAb 250 nM) | no binding (tested: OD450 not above 0.25; sdAb 250 nM) | no binding (tested: OD450 not above 0.25; sdAb 250 nM) | no binding (tested: OD450 not above 0.25; sdAb 250 nM) |
| 1.18 OD450 | hCD22pas-24 (VHH, single biotin at the VHH C-terminal (biotinylation signal sequence), llama VHH, expressed in E. coli TG1, IMAC purified, monomeric SEC fraction; also called VHH # 26; 8-hCD22 pas-24) VHH: QVQLVESGGGLVQAGGSLRLSCSASGITSSINSMGWHRQAPGKQRELVASIGRGGSGSTKYADSGKGRFLISRDNNKNILFLEMNSLKPEDTADYYCLEVTTDLSSYWGRGTQVTVSS | no binding (tested: OD450 not above 0.25; sdAb 250 nM) | no binding (tested: OD450 not above 0.25; sdAb 250 nM) | no binding (tested: OD450 not above 0.25; sdAb 250 nM) | no binding (tested: OD450 not above 0.25; sdAb 250 nM) | no binding (tested: OD450 not above 0.25; sdAb 250 nM) |
| 1.81 OD450 | hCD221ug-80 (VHH, single biotin at the VHH C-terminal (biotinylation signal sequence), llama VHH, expressed in E. coli TG1, IMAC purified, monomeric SEC fraction; also called VHH # 1; 2-hCD22 1ug-80) VHH: QVQLVESGGGLVQPGGSLRLSCTFSGFTLDYYVMVWFRQAPGKEREAVSCITSDGVTYYADSVKGRFTISRDNAKNTVYLQMNRVKPEDTAVYYCAVDKPFYDGGIQYTCPVDFDSWGQGAQVTVSS | no binding (tested: OD450 not above 0.25; sdAb 250 nM) | no binding (tested: OD450 not above 0.25; sdAb 250 nM) |  | no binding (tested: OD450 not above 0.25; sdAb 250 nM) | no binding (tested: OD450 not above 0.25; sdAb 250 nM) |
| 0.289 OD450 | hCD22pas-32 (VHH, single biotin at the VHH C-terminal (biotinylation signal sequence), llama VHH, expressed in E. coli TG1, IMAC purified, monomeric SEC fraction; also called VHH # 15; 6-hCD22 pas-32) VHH: QVQLVESGGGLVQAGGSLRLSCAVSGRIFRSYVLGWFRQAPGKERELVARIGWSDTYYADSVKGRFTISRDNAKNTVDLQMNSLKPEDTAVYYCAANSPPYGPQRDEFGYWGQGTQVTVSS | no binding (tested: OD450 not above 0.25; sdAb 250 nM) | no binding (tested: OD450 not above 0.25; sdAb 250 nM) | no binding (tested: OD450 not above 0.25; sdAb 250 nM) | no binding (tested: OD450 not above 0.25; sdAb 250 nM) | no binding (tested: OD450 not above 0.25; sdAb 250 nM) |
| 1.19 OD450 | hCD221ug-13 (VHH, single biotin at the VHH C-terminal (biotinylation signal sequence), llama VHH, expressed in E. coli TG1, IMAC purified, monomeric SEC fraction; also called VHH # 21; 1-hCD22 1ug-13) VHH: QVQLVESGGGLVQAGDSLRLSCAGSGGSFSSVTMAWFRQAPGKDREFVAAITWSSPSTYYADSVKGRFTISRDNAKNTVYLQMNSLKPEDTAVYYCAGGRTGRGTSADTDEYNYWGQGTQVTVSS | no binding (tested: OD450 not above 0.25; sdAb 250 nM) | no binding (tested: OD450 not above 0.25; sdAb 250 nM) | no binding (tested: OD450 not above 0.25; sdAb 250 nM) |  | no binding (tested: OD450 not above 0.25; sdAb 250 nM) |
